# Numbering of substitutions follows the chain as printed.
# B1: GEBT391, mature IgG (antibody, V domains shown)
# VH: QVQLVESGGGLVQPGGSLRLSCAASGFTFSSYGMHWVRQAPGKGLEWVAVIWFDGSEKYYVDSVKDRFTISRDNSKNMLYLQMNNLKLDDTAVYYCARRGCTGSGCYLYYYALDSWGQGVVVTVSS
# VL: DIQMTQSPSSLSASVGDTVTITCRASQGISSYLNWFQQKPGKAPKLLIYAATTLQSGVPSRFSGSGSGTDFTLTISSLQPEDFATYYCLQHNFYPYSFGQGTKVEIK
# B2: GEBT412, mature IgG (antibody, V domains shown)
# VH: B1 VH with S21A, T28I, S31N, Y32H, F53Y, V61A, D89V, A112G
# VL: B1 VL with Y32H
# B3: GEBT391, inferred germline (igL) reverted IgG (antibody, V domains shown)
# VH: B1 VH with Q1E, F53Y, E57K, V61A, D89E
# VL: B1 VL with T52S, T53S, Q55E, D70E
# notes: also called igL GEBT391; gL-reverted GEBT391
# B4: GEBT403, mature IgG (antibody, V domains shown)
# VH: EVQLVQSGAEVKKPGSSVKVSCKASGYTFTDYYMHWVRQAPGQGLEWMGEINPKTGGTNYAQKFQGRVTMTRDTSTSTAYMELSSLRSEDTAIYSCARGGQRLIPLRRFYFYYWGQGVLVTVSS
# VL: QSVLTQPPSVSGAPGQKVTISCTGSSSNIGGYDVHWYQQLPGMAPKLLIYDNNERPSGISDRFSGSKSGTSASLAITGLQTEDEADYYCQSYDSSMNAWVFGGGTRLTVL
# notes: also called mature GEBT403
# B5: GEBT414, mature IgG (antibody, V domains shown)
# VH: EVQLVQSGAEVKRPGESLRISCKTSGYSFTGSWISWVRQMPGKGLDWMGNIYPGDSDTRYNPSFQGHVTISADKSISTTYLQWSSLKASDTATYYCAKGGGITIFGLLHYPLDSWGQGVVVTVSS
# VL: DIQMTQSPSSLSASVGDTVTITCRASQGINNWLAWYQQKPGKAPKLLIYKASSLQSGVPSRFSGSGSGTDFTLTISSLQSEDFATYYCQQYNSGPLTFGGGTKVEIK
# B6: GEBT383, mature IgG (antibody, V domains shown)
# VH: QVQLQESGPAVVKPSETLSLTCAVSGGSISSSNWWSWIRQSPGKGLEWIGGVYGSSGSTEYNPSLKSRVTISIDTSKNQFSLKLSSVTAADTAVYYCVRHCTWYNNIWNGYYNGFDYWGQGVLVTVSS
# VL: QSALTQPPSVSGAPGQRVTISCTGSSSNIGGYYVSWYQQLPGTVPKLLIYENKKRPSGVSDRFSGSKSGTSASLTITGLQPGDEADYYCSAWDNSLSSHVFGSGTKLTVL
# notes: also called non-CD4bs-directed mAb
# B7: GEBT404, mature IgG (antibody, V domains shown)
# VH: EVQLVESGGGLAKPGGSLRLSCAASGFTFSNYWMYWVRQAPGKGLEWISAINSAGSRTYYPDSVKGRFTISRENAKNTLYLQMDSLRAEDTAVYYCAKGRIAIFGLVITYFDYWGQGVLVTVSS
# VL: DIQMTQSPSSLSASVGDRVTITCRASQGITNDLAWYQQKPGETPKLLIYDASSLQSGIPSRFSGSGSGTDFTLTISSLQPEDFATYYCQHYYSTPPTFGGGTKVEIK
# B8: GEBT412, inferred germline (igL) reverted IgG (antibody, V domains shown)
# VH: B1 VH with F53Y, E57K, V61A, D89E, A112G
# VL: B1 VL with T52S, T53S, Q55E, D70E
# notes: also called igL GEBT412
# B9: GEBT404, inferred germline (igL) reverted IgG (antibody, V domains shown)
# VH: B7 VH with Y35H, R57S, P61A, S85G
# VL: B7 VL with R24Q, D50E, P80S
# notes: also called igL GEBT404; gL-reverted GEBT404
# Target: T1, YU2 gp140-foldon trimer (HIV-1 isolate YU2 (clade B), UniProt P35961, stabilised)
# T1 construct: also called eliciting gp140-F immunogen; gp140 trimers; source: 293 F cells; not shown: His tag, C-terminal, kept
# Test: ELISA; Env glycoprotein coated at 2 ug/ml in PBS pH 7.4 overnight at 4 C; IgG 5-fold serially diluted, 1 hour at RT; HRP goat anti-human IgG (H+L)
# Details: both partners purified
row,Binder,binding result
1,B1,binds
2,B2,binds
3,B3,binds
4,B4,binds
5,B5,binds
6,B6,binds
7,B7,binds

# Target: T2, YU2 gp120, soluble monomer (HIV-1 isolate YU2 (clade B), UniProt P35961)
# Test: as above
# Details: both partners purified
row,Binder,binding result
1,B1,binds
2,B2,binds
3,B4,binds
4,B5,binds
5,B7,binds

# Target: T3, JRFL gp140-F trimer (HIV-1 isolate JRFL (clade B), UniProt Q75760, stabilised)
# T3 construct: also called JRFL foldon trimers; source: 293 F cells
# Test: as above
# Details: both partners purified
row,Binder,binding result
1,B1,binds
2,B8,binds
3,B2,binds
4,B3,binds
5,B4,binds
6,B5,binds
7,B7,binds
8,B9,binds

# Target: T2, YU2 gp120, soluble monomer
# Test: BLI
# Details: both partners purified
row,Binder,binding result
1,B8,binds
2,B3,binds

# From paper PMC4754655 (Scientific Reports, 2016)
